Legend:
[1] = molecular target: T1, Human CD37 (human, UniProt P11049 1-281); assay: IHC on FFPE CD37-positive samples (human tonsil, Daudi, Ramos, Namalwa cells)
T1 construct: Endogenous CD37 in formalin fixed paraffin embedded Daudi, Ramos and Namalwa cell pellets and human tonsil (IHC); also called GP52-40; tetraspanin-26
T1 sequence: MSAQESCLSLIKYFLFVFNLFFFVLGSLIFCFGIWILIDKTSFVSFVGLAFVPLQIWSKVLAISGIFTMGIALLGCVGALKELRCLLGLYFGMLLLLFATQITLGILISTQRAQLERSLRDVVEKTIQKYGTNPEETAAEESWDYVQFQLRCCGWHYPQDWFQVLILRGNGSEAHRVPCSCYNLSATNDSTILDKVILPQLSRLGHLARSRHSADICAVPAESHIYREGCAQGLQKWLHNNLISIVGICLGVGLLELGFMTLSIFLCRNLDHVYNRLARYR
Protocol: Slides were incubated with ImmunoGen, Inc. generated 1B11-2 antibody, Leica/Novocastra NCL-CD37 antibody (clone CT1) or Leica/Novocastra muIgG1 control antibody at varying concentrations for 15 minutes. Bound antibodies were detected by incubation with the Leica Bond Refine detection system. Following the application of the antibodies, slides were incubated with Post Primary Reagent (rabbit anti-mouse IgG) for 8 minutes, Polymer (goat anti-rabbit polymer) for 8 minutes, and DAB (3,3-diaminobenzidine tetrahydrochloride) for 10 minutes. […] Slides were counterstained with hematoxylin for 5 minutes.
Purified antibody from clone 1B11-2 diluted at 8.4 μg/mL, 4.2 μg/mL, and 2.1 μg/mL in Leica Antibody Diluent (Tris-buffered saline, surfactant, and protein stabilizer with 0.35% ProClin™ 950) was used to stain CD37-positive control samples (human normal tonsil, Daudi cells, Ramos cells, and Namalwa cells). The antibody was evaluated for CD37 specificity as measured by acceptable membrane staining and specificity in CD37-positive samples. This clone was also compared with the NCL-CD37 mouse mAb (clone CT1) diluted to 4.2 μg/mL in Leica Antibody Diluent using the same CD37 positive human tissue and cells. […] A suitable staining concentration of 4.2 μg/mL was experimentally determined for 1B11-2.

[2] = molecular target: T2, hCD37-ECD-Fc (amino acids 107 to 235 of human CD37 fused to murine IgG2a Fc-domain) (human); assay: Western blot after denaturing, reducing SDS PAGE (Gel C), primary 1B11-2, secondary anti-mouse F(ab)2-HRP
T2 construct: Produced in HEK-293T cells
T2 chain: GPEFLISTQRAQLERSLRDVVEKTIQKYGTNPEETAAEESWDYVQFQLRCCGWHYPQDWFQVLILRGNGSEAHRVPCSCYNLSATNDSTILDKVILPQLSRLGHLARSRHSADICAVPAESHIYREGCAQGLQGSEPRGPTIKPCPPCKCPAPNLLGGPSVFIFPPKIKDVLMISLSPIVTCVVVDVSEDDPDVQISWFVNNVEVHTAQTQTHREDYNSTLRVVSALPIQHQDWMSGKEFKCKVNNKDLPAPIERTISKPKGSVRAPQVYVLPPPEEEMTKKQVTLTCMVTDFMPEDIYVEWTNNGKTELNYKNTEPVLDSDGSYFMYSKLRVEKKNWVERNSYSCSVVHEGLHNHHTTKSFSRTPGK
Protocol: The ability to recognize different preparations of Fc-fused CD37-ECDs was tested in denaturing SDS PAGE followed by Western blotting for 1B11-2 (left panel), in direct comparison with a commercially available anti-CD37 antibody (Leica; right panel). Fc-fused CD37-ECD preparations were denatured by incubation in Laemmli buffer containing 70mM β-mercapto-ethanol at 100° C. for 10 min, and were separated by SDS polyacrylamide gel electrophoresis, followed by electrophoretic transfer to PVDF membranes. Membranes were blocked with 5% non-fat milk in Tris-buffered saline with 0.1% Tween-20 (TBST) for 1 hour at room temperature. Primary antibodies were applied overnight, followed by detection with secondary anti-mouse F(ab)₂ conjugated to horse radish peroxidase for 1 h at room temperature. Blots were developed using enhanced chemiluminescence detection following standard procedures. While the Leica antibody recognizes all three Fc-CD37 ECD preparations, the 1B11-2 antibody of the invention recognizes only hCD37-ECD-Fc and hCD37-Fc-LAGA, but not hCD37-ECD-S2-Fc. The hCD37-ECD-S2-Fc construct is missing the S1 segment (amino acids 110-137) of the CD37 ECD. Thus, a region of amino acids 110-137 is critical for epitope recognition by 1B11-2, but not by the Leica antibody.

[3] = molecular target: T3, hCD37-ECD-S2-Fc (amino acids 107 to 109 and 138 to 235 of human CD37 fused to murine IgG2a Fc-domain) (human); assay: ELISA, native hCD37-ECD-S2-Fc coated on the plate, purified antibody titrated
T3 construct: Produced in HEK-293T cells; It lacks the S1 segment (amino acids 110-137) of the CD37 large extracellular domain; also called truncated hCD37-ECD-S2-Fc protein
T3 chain: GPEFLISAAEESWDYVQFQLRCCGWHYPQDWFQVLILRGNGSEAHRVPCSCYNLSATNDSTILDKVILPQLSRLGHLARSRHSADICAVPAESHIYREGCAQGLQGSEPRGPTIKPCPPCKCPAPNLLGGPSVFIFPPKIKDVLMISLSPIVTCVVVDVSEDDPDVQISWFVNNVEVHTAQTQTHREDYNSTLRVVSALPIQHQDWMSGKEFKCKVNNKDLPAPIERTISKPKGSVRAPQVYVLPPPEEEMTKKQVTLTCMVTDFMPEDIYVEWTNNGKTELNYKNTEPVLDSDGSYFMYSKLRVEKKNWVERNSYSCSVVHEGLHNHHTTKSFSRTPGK
Protocol: (§1) Antibody from 1B11-2 was purified using standard protein-A chromatography. An anti-CD37 antibody sold by Leica Biosystems (product code NCL-CD37) was used for comparison. The binding of the anti-CD37 antibodies was examined by ELISA with recombinant CD37 proteins used as the antigen. Each recombinant protein was immobilized at approximately 25-100 ng/well on microtiter plates in Sodium bicarbonate coating buffer (Sigma-Aldrich) using either native or denatured conditions as described above. Plates were washed once with PBS supplemented with 0.05% Tween-20 and blocked with PBS supplemented with 1% bovine serum albumin (BSA). Plates were washed three times with PBS supplemented with 0.05% Tween-20 and purified antibodies were added to the plates. Plates were incubated for one hour at room temperature, washed three times as above, and incubated with HRP-labeled goat anti-murine secondary antibody (Jackson ImmunoResearch, diluted at 1:5,000) for one hour at room temperature. The plates were washed three times as above, and bound HRP-conjugated antibody was detected by adding the HRP-substrate TMB (Bio-FX). Plates were incubated for approximately 10 minutes, and then color development was stopped with stop solution (Bio-FX). Absorbance at 450 nm was measured for each plate in a multiplate reader. Representative results are shown in FIG. 2 for binding to native hCD37-Fc-LAGA and hCD37-LEL. […]

[4] = molecular target: T4, hCD37-Fc-LAGA (amino acids 107 to 235 of human CD37 fused to human IgG1 Fc-domain) (human); assay: ELISA, native hCD37-Fc-LAGA coated on the plate, purified antibody titrated (left panel)
T4 construct: Produced in HEK-293T cells
Protocol: as §1

binding result [1]: binds
binding result [2]: binds
binding result [3]: no binding (tested: 1e-7 M)
EC50 (read off the curve) [4]: ~0.1 nM
B1: muCD37-1B11-2 mouse monoclonal anti-human CD37 antibody (antibody, mouse IgG1, kappa, V domains shown)
VH: EVQLLQSGPELVKPGASVKISCKASGYSFTGYFMNWVIQSHGKGLEWIGRINPYNGDTFYNQKFKGKATLTVDKSSTTAHMELLSLTSEDSAVYYCGSRGIVASSRFFDVWGAGTSVIVSS
VL: SIVMTQTPKFLLVSAGDRVTITCKASQGVSNDVDWYQQKPGQSPKLLIYYASNRYTGVPDRFTGSGYGTDFTFSISTVQAEDLAVYFCHQDYTSPTFGGGTKLEIKR
notes: Murine IgG1/kappa from hybridoma; also called antibody 1B11-2; CD37 1B11-2 Mouse mAb
